Patent US20260250328A1 (published 2026)

What was measured:
Assay in all cases: SPR
P2-4G = target: P2-4G
[1] = target: P1-5B-RBD (mammalian cell expression system)
[2] = target: P2-5C-RBD (mammalian cell expression system)
[3] = target: P2-3E-RBD (mammalian cell expression system)
[4] = target: P2-2C-RBD (mammalian cell expression system)
[5] = target: P2-3A-RBD (mammalian cell expression system)
[6] = target: P1-5B-RBD (insect cell expression system)
[7] = target: P2-2C-RBD (insect cell expression system)
[8] = target: P1-1G-RBD (insect cell expression system)
[9] = target: P2-3A-RBD (insect cell expression system)
[10] = target: P2-3E-RBD (insect cell expression system)
[11] = target: P2-3D-RBD (insect cell expression system)

B1: HEV-p239 (other)
chain: IALTLFNLADTLLGGLPTELISSAGGQLFYSRPVVSANGEPTVKLYTSVENAQQDKGIAIPHDIDLGESRVVIQDYDNQHEQDRPTPSPAPSRPFSVLRANDVLWLSLTAAEYDQSTYGSSTGPVYVSDSVTLVNVATGAQAVARSLDWTKVTLDGRPLSTIQQYSKTFFVLPLRGKLSFWEAGTTKAGYPYNYNTTASDQLLVENAAGHRVAISTYTTSLGAGPVSISAVAVLAPHSV
Kd (P2-4G): 3.4 nM | Kd [1]: 0.131 nM | Kd [2]: 0.874 nM | Kd [3]: 1.24 nM | Kd [4]: 1.02 nM | Kd [5]: 0.0364 nM | Kd [6]: 1.13 nM | Kd [7]: 3.71 nM | Kd [8]: 3.57 nM | Kd [9]: 0.655 nM | Kd [10]: 1.41 nM | Kd [11]: 1.8 nM
